In US20230025572A1 (published 2023):

T1: MAGE-A1 peptide on HLA-A*02:01 (human)
T1 peptide: KVLEYVIKV

T2: MAGE-B5 peptide on HLA-A*02:01 (human)
T2 peptide: KVLEYLAKV

T3: MAGE-B16 peptide on HLA-A*02:01 (human)
T3 peptide: KVLEFVAKV


Legend:
[1] = molecular target: T1, MAGE-A1 peptide on HLA-A*02:01; test: multimer staining
[2] = molecular target: T2, MAGE-B5 peptide on HLA-A*02:01; test: cytokine release
Protocol: (§1) FIG. 18 T2 cells were loaded with 10-5 mol/l MAGE-A1278 (SEQ ID NO: 11) or the 2 most similar epitopes in the human proteome (MAGE-B16 and MAGE-B5, SEQ ID NOs: 54 and 55, respectively) differing in only 2 amino acids from MAGE-A1278 and co-cultured with TCR modified T cells. Functional response was assessed based on IFNγ production.

[3] = molecular target: T3, MAGE-B16 peptide on HLA-A*02:01; test: cytokine release
Protocol: as §1

binding result [1]	binding result [2]	binding result [3]	Binder
recognises	no recognition	no recognition	TCR 1405 (TCR, V domains shown) Valpha: GENVEQHPSTLSVQEGDSAVIKCTYSDSASNYFPWYKQELGKGPQLIIDIRSNVGEKKDQRIAVTLNKTAKHFSLHITETQPEDSAVYFCAARPNSGNTPLVFGKGTRLSVIA Vbeta: SAVISQKPSRDICQRGTSLTIQCQVDSQVTMMFWYRQQPGQSLTLIATANQGSEATYESGFVIDKFPISRPNLTFSTLTVSNMSPEDSSIYLCSVEQDTNTGELFFGEGSRLTVL
recognises	no recognition	no recognition	TCR 1367 (TCR, V domains shown) Valpha: GEDVEQSLFLSVREGDSSVINCTYTDSSSTYLYWYKQEPGAGLQLLTYIFSNMDMKQDQRLTVLLNKKDKHLSLRIADTQTGDSAIYFCAESIGSNSGYALNFGKGTSLLVTP Vbeta: DVKVTQSSRYLVKRTGEKVFLECVQDMDHENMFWYRQDPGLGLRLIYFSYDVKMKEKGDIPEGYSVSREKKERFSLILESASTNQTSMYLCASRGLAGYEQYFGPGTRLTVT
recognises	no recognition	no recognition	TCR 1705 (TCR, V domains shown) Valpha: QKEVEQDPGPLSVPEGAIVSLNCTYSNSAFQYFMWYRQYSRKGPELLMYTYSSGNKEDGRFTAQVDKSSKYISLFIRDSQPSDSATYLCAMSDTGNQFYFGTGTSLTVIP Vbeta: AAGVIQSPRHLIKEKRETATLKCYPIPRHDTVYWYQQGPGQDPQFLISFYEKMQSDKGSIPDRFSAQQFSDYHSELNMSSLELGDSALYFCASSFRGGGANVLTFGAGSRLTVL
